T1: ICOS-L-H (N57H)-His (UniProt O75144 19-256, N57H)
T1 construct: plasmid pMAZ-ICOS-L-H(N57H)-His; source: Expi293F, transient transfection, purified (Ni-NTA agarose, SEC)
T1 sequence (looked up): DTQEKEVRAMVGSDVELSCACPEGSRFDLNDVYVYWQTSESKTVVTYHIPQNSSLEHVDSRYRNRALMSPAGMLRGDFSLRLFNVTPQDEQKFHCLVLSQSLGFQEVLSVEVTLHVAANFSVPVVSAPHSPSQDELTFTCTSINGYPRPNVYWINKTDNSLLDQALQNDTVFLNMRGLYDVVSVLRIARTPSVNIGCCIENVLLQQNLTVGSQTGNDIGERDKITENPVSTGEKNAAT

T2: ICOS-L-P (Q51P)-His (UniProt O75144 19-256, Q51P)
T2 construct: plasmid pMAZ-ICOS-L-P (Q51P)-His; source: Expi293F, transient transfection, purified (Ni-NTA agarose, SEC)
T2 sequence (looked up): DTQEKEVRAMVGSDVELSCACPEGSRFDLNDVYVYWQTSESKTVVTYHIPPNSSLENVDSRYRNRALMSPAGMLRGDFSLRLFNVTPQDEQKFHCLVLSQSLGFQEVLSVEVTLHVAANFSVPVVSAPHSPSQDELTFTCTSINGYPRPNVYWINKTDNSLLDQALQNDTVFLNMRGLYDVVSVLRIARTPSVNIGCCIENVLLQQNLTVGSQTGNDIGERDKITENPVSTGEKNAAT

T3: ICOS-L Y8 (Q51P, N57H)-His (UniProt O75144 19-256, Q51P | N57H)
T3 construct: plasmid pMAZ-ICOS-L-Y8(Q51P, N57H)-His; also called Y8 variant; source: Expi293F, transient transfection, purified (Ni-NTA agarose, SEC)
T3 sequence (looked up): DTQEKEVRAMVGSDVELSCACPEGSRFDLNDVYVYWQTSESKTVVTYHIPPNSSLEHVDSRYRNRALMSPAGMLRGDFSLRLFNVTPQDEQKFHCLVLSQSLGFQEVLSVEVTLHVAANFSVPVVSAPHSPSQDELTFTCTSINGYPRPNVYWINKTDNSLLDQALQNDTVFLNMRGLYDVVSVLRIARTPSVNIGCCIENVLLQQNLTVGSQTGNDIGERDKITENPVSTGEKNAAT

T4: ICOS-L wild-type-His (UniProt O75144 19-256)
T4 construct: ICOS ligand (ICOS-L, B7-H2, CD275), ectodomain D1-T238; plasmid pMAZ-ICOS-L-wild-type-His; also called wild-type ICOS-L; B7-H2; source: Expi293F, transient transfection, purified (Ni-NTA agarose, SEC)
T4 sequence (looked up): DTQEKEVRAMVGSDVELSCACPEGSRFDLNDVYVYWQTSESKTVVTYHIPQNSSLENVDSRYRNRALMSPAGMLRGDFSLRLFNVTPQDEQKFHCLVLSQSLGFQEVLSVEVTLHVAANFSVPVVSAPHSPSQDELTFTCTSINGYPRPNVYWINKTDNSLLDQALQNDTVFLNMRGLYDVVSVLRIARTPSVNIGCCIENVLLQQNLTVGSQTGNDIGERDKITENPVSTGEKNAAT


Assays:
Settings in all cases: both partners purified
ICOS-L-H (N57H)-His = target: T1, ICOS-L-H (N57H)-His; assay: BLI; Octet R8; hICOS-Fc (5 µg/mL) immobilised on a Protein A biosensor; serial dilutions of ICOS-L variants, 10 min association, 10 min dissociation, 1× PBS pH 7.4
ICOS-L-P (Q51P)-His = target: T2, ICOS-L-P (Q51P)-His; assay: as above
[1] = target: T3, ICOS-L Y8 (Q51P, N57H)-His; assay: as above
ICOS-L wild-type-His = target: T4, ICOS-L wild-type-His; assay: as above
[2] = target: T3, ICOS-L Y8 (Q51P, N57H)-His; assay: ELISA; ICOS-Fc (hICOS-Fc or mICOS-Fc) coated at 4 µg/mL in 0.05 M Na2CO3 pH 9.6; serially diluted His-tagged ICOS-L variants, detected with mouse anti-His-HRP

Kd (ICOS-L-H (N57H)-His) [nM]	koff (ICOS-L-H (N57H)-His) [s⁻¹]	kon (ICOS-L-H (N57H)-His) [M⁻¹ s⁻¹]	Kd (ICOS-L-P (Q51P)-His) [nM]	koff (ICOS-L-P (Q51P)-His) [s⁻¹]	kon (ICOS-L-P (Q51P)-His) [M⁻¹ s⁻¹]	Kd [1] [nM]	koff [1] [s⁻¹]	kon [1] [M⁻¹ s⁻¹]	Kd (ICOS-L wild-type-His) [nM]	koff (ICOS-L wild-type-His) [s⁻¹]	kon (ICOS-L wild-type-His) [M⁻¹ s⁻¹]	binding result [2]	Binder
23.3	0.00567	244000	4.75	0.000961	202000	1.19	0.000179	150000	113	0.0337	298000		hICOS-Fc (Fc fusion, human, UniProt Q9Y6W8 21-140, looked up, human Inducible T-cell Co-Stimulator (ICOS), extracellular domain E21-K140; plasmid pMAZ-hICOS-Fc; also called hICOS-hFc; human ICOS ectodomain fused to human Fc; source: Expi293F, transient transfection, purified (Protein A resin)) EINGSANYEMFIFHNGGVQILCKYPDIVQQFKMQLLKGGQILCDLTKTKGSGNTVSIKSLKFCHSQLSNNSVSFFLYNLDHSHANYYFCNLSIFDPPPFKVTLTGGYLHIYESQLCCQLK
												binds	mouse ICOS (E21-K141)-hFc (Fc fusion, UniProt Q9WVS0 21-141, looked up, mouse ICOS, E21-K141; Plasmid pMAZ-mICOS-Fc; also called mICOS-Fc; source: Expi293F, transient transfection, purified (Protein A resin)) EINGSADHRMFSFHNGGVQISCKYPETVQQLKMRLFREREVLCELTKTKGSGNAVSIKNPMLCLYHLSNNSVSFFLNNPDSSQGSYYFCSLSIFDPPPFQERNLSGGYLHIYESQLCCQLK
